According to patent US20020161202A1, “Apo-2DcR” (Genentech, Inc., priority 1997, published 2002):

B1: Apo-2DcR: full-length native sequence human Apo-2DcR polypeptide, 259 amino acids, GPI-anchored TNFR family member; expressed by transfection (protein)
chain: ATTARQEEVPQQTVAPQQQRHSFKGEECPAGSHRSEHTGACNPCTEGVDYTNASNNEPSCFPCTVCKSDQKHKSSCTMTRDTVCQCKEGTFRNENSPEMCRKCSRCPSGEVQVSNCTSWDDIQCVEEFGANATVETPAAEETMNTSPGTPAPAAEETMNTSPGTPAPAAEETMTTSPGTPAPAAEETMTTSPGTPAPAAEETMTTSPGTPA
B2: Apo-3/DR3: full length native sequence human TNFR family polypeptide with cytoplasmic death domain; expressed by transfection (protein, UniProt Q93038 1-417, looked up)
chain: MEQRPRGCAAVAAALLLVLLGARAQGGTRSPRCDCAGDFHKKIGLFCCRGCPAGHYLKAPCTEPCGNSTCLVCPQDTFLAWENHHNSECARCQACDEQASQVALENCSAVADTRCGCKPGWFVECQVSQCVSSSPFYCQPCLDCGALHRHTRLLCSRRDTDCGTCLPGFYEHGDGCVSCPTSTLGSCPERCAAVCGWRQMFWVQVLLAGLVVPLLLGATLTYTYRHCWPHKPLVTADEAGMEALTPPPATHLSPLDSAHTLLAPPDSSEKICTVQLVGNSWTPGYPETQEALCPQVTWSWDQLPSRALGPAAAPTLSPESPAGSPAMMLQPGPQLYDVMDAVPARRWKEFVRTLGLREAEIEAVEVEIGRFRDQQYEMLKRWRQQQPAGLGAVYAALERMGLDGCVEDLRSRLQRGP
modifications: full-length
notes: expressed by transfection

Assays:
[1] = system: Apo-2L; assay: Binding of radioiodinated Apo-2L to Apo-2DcR-transfected 293 cells; details: 125I-Apo-2L; 293 cells transfected with full-length Apo-2DcR vs pRK5; FIG. 4
Description: To test whether Apo-2DcR binds to Apo-2L, and to assess whether Apo-2DcR is GPI-linked, binding of radioiodinated Apo-2L to Apo-2DcR-transfected 293 cells was analyzed. The effect of pre-treatment of the cells with phosphatidylinositol-specific phospholipase C (PI-PLC) on the binding was also analyzed.
Human 293 cells (ATCC CRL 1573) were plated in 100 mm plates (1×10^6 cells/plate) and transfected with 20 μg/plate pRK5 or pRK5 encoding the full-length Apo-2DcR (described in Example 1, ATCC deposit 209087) using calcium phosphate precipitation. After 24 hours, the cells were harvested in PBS/10 mM EDTA, washed in phosphate buffered saline (PBS), resuspended in 2 ml PBS per original plate and divided into two 1 ml aliquots per transfection. PI-PLC [Treanor et al., Nature, 382:80-83 (1996)] (1 μg/ml) was added to one of the two aliquots derived from each transfection, and the cells were incubated 1 hour at 37° C. The cells were washed and respuspended in 1 ml PBS containing 1% BSA (Sigma), and 0.04 ml aliquots were placed into tubes in triplicate. […] After a 1 hour incubation at room temperature, the cells were washed in ice cold PBS, pelleted, and counted for radioactivity.

[2] = system: Human 293 cells; assay: Apo-2L apoptosis induction in Apo-2DcR-transfected 293 cells (morphology of GFP-positive cells); assay type: cell-based; details: 293 cells transfected with pRK5-hApo-2DcR; Apo-2L 0.5 μg/ml; examined over 6 hours; FIG. 5
Description: Human 293 cells, which express both DR4 and Apo-2 mRNA (data not shown), were plated in 100 mm plates (1×10^6 cells/plate) and transfected with 3 μg per plate pRK encoding green fluorescent protein (GFP; purchased from Clontech) together with 20 μg/plate pRK5 or pRK5-hApo-2DcR (see Example 2) using calcium phosphate precipitation. After 18 hours, the cells were treated with PBS or with Apo-2L (Pitti et al., supra, 0.5 μg/ml) and examined over 6 hours under a fluorescence microscope equipped with Hoffman optics (which enables clear viewing of non-fixed cells on plastic). GFP-positive cells were identified by green fluorescence and scored for apoptosis by morphologic criteria such as membrane blebbing and cytoplasmic condensation.

[3] = system: NF-κB; assay: Activation of NF-κB by Apo-2L in Apo-2DcR-transfected 293 cells (electrophoretic mobility shift assay); assay type: cell-based, human; details: 293 cells transfected with pRK5-hApo-2DcR, 18 hours; Apo-2L 0.5 μg/ml; FIG. 6
Description: In a similar experiment, the 293 cells were transfected by pRK5 or pRK5-hApo-2DcR (20 μg/plate) and analyzed 18 hours later for activation of NF-κB by Apo-2L (0.5 μg/ml), as in Example 10 below.
HeLa cells were transfected with pRK5 expression plasmids encoding full-length native sequence Apo-2, DR4 or Apo-3 and harvested 24 hours after transfection. Nuclear extracts were prepared and 1 μg of nuclear protein was reacted with a ^32P-labelled NF-κB-specific synthetic oligonucleotide probe […] (SEQ ID NO: 12) [see, also, MacKay et al., J. Immunol., 153:5274-5284 (1994)], alone or together with a 50-fold excess of unlabelled probe, or with an irrelevant ^32P-labelled synthetic oligonucleotide […] (SEQ ID NO: 13). In some samples, antibody to p65/RelA subunits of NF-κB (1 μg/ml; Santa Cruz Biotechnology) was added. DNA binding was analyzed by an electrophoretic mobility shift assay as described by Hsu et al., supra; Marsters et al., supra, and MacKay et al., supra.

[4] = system: NF-κB; assay: NF-κB activation in HeLa cells transfected with receptor plasmids (electrophoretic mobility shift assay); assay type: cell-based, human; details: harvested 24 hours after transfection, FIG. 12A
Description: HeLa cells were transfected with pRK5 expression plasmids encoding full-length native sequence Apo-2, DR4 or Apo-3 and harvested 24 hours after transfection. […] Immunol., 153:5274-5284 (1994)], alone or together with a 50-fold excess of unlabelled probe, or with an irrelevant ^32P-labelled synthetic oligonucleotide […] NO: 13). In some samples, antibody to p65/RelA subunits of NF-κB (1 μg/ml; Santa Cruz Biotechnology) was added. DNA binding was analyzed by an electrophoretic mobility shift assay as described by Hsu et al., supra; Marsters et al., supra, and MacKay et al., supra.

Chain of Apo-2L (P50591 114-281 limits assumed): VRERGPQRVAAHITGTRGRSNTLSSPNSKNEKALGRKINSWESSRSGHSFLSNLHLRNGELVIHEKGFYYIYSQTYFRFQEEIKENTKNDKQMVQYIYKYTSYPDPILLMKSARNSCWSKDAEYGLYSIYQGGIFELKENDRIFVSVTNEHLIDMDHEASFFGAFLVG
Chain of Apo-2L (O14798 26-236 partner limits assumed): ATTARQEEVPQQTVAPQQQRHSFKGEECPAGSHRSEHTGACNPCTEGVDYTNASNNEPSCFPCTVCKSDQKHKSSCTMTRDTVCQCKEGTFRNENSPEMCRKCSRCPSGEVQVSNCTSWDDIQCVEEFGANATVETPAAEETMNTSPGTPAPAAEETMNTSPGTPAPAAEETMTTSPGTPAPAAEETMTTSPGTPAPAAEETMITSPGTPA

Molecule | amount of specific Apo-2L binding [1] | responsiveness to Apo-2L as measured by apoptosis induction [2] | Apo-2L function as measured by NF-κB activation [3] | NF-κB activation upon transfection [4]
B1 | marked increase | markedly reduced | inhibits Apo-2L function | 
B2 |  |  |  | activation observed
